System: bladder tumor tissue (epidermal growth factor positive superficial transitional cell bladder carcinoma)
Test: Radioactive uptake in bladder tumor vs normal bladder tissue after instillation in the bladder of patients (ttn ratio)
Conditions: 200 mL of 0.25 μg/mL in saline instilled in the bladder for 30 minutes, washed out, mean values
Protocol: Nine patients having epidermal growth factor positive superficial transitional cell bladder carcinoma were studied.
200 mL of the polymers, of the concentration 0.25 μg/mL in saline, were instilled through an urethral catether and kept in the bladder for 30 minutes and were then carefully washed out with approximately 400 mL saline. The patients were then operated on and samples were taken from normal bladder tissue and bladder tumor tissue, respectively. The samples were weighed and counted in gamma counter and the radioactive uptake was calculated as cpm/g tissue. The target to non-target (ttn) ratio was calculated.

With Tc-99m-lysine dextran the “radioactive uptake, ttn (target to non-target ratio, tumor vs normal bladder tissue, cpm/g)” value was “highest target to non-target ratio”.

Reference: patent publication US6569841B1, “Ion exchange tumor targeting (IETT)” (MAP Medical Technologies OY, priority 1998, dated 2003)
